From a protein production outcome set (Wang et al. 2014)

Test: label from the status in PepcDB records
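Also: failed if final PepcDB status was selected cloned or expressed and not failed if soluble or beyond.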

| Sequence | protein production |
| --- | --- |
| MDVGVVRPQRTEAGWDGGVAPRAGPTRRREACTAYVQRVAGGSGLPEGSSGSEPGPGRSRERPGDAAGGSGNAGCCACPVVSETGGDWLTDSTNRAFSVPGDFQGRRQAEGKTQKVRVQSTGKVPPFPVMKLQVLVLLMSWFGVLSWVQAEFFTSIGHMTDLIYAEKDLVQSLKEYILAEEAKLSKIKSWASKMEALTSKSAADPEGYLAHPVNAYKLVKRLNTDWPALGDLVLQDAAAGFVANLSVQRQFFPTDEDESGAARALMRLQDTYKLDPDMISRGELPGTKYQAMLSVDDCFGMGRSAYNEGDYYHTVLWMEQVLKQLDAGEEATVTKSLVLDYLSYAVFQLGDLHRAVELTRRLLSLDPSHERAGGNLRYFERLLEEERGKSLSNQTDAGLASQENLYERPVDYLPERDVYESLCRGEGIKMTPRRQKRLFCRYHHGNRVPQLLIAPFKEEDEWDSPHIVRYYDVMSDEEIERIKEIAKPKLARATVRDPKTGVLTVASYRVSKSSWLEEDDDPVVARVNRRMQHITGLTVKTAELLQVANYGMGGQYEPHFDFSRSDERDAFKRLGTGNRVATFLNYMSDVEAGGATVFPDLGAAIWPKKGTAVFWYNLLRSGEGDYRTRHAACPVLVGCKWVSNKWFHERGQEFLRPCGTTEVD | failed |
| MPGAVDFKERISRQRPHDRETYGHAGNTDLQDIVYQLESDRGRIVNSAAVRRLQQKTQVFPLERNAAVRSRLTHSLEVQQTGRFIVRTLFRQLGPRAAEVGLDGLEGALESLVEMACLMHDVGNPPFGHFGEYAINDWFERNLDALFERRIPPGQGDGLLQQRMLTDLKHFEGNAQAIRLVVKLLRLNLTYTQTAGLLKYVRPAYEPKPDKAAANHYLNKKPGFYLSEEAFVDELRRVLGMRPGTRHPVAYIMEAADDISYCLADIEDSVEKGILDIRQLADLLVKKFAVHHSPDAPIPGDADNMSFQRMVDYSLEKAEREPINKVSEFFIRLRVKMIHPLVQHAAQQFIDNFEAVHAGTLGRALMEDGSLPHAIVQTFKDVAMEWVFCHPEVETLELQGYRIIQGLLDFYAPLLRLPAEEFQALAEGRQAAAPHPQLLVRRLPSQQIKAYLEAMKGVAEDPLQRQWEFYHRCRMLQDFVSGMTDQHAQDEYRALSA | failed |
| MTVKTEAAKGTLTYSRMRGMVAILIAFMKQRRMGLNDFIQKIANNSYACKHPEVQSILKISQPQEPELMNANPSPPPSPSQQINLGPSSNPHAKPSDFHFLKVIGKGSFGKVLLARHKAEEVFYAVKVLQKKAILKKKEEKHIMSERNVLLKNVKHPFLVGLHFSFQTADKLYFVLDYINGGELFYHLQRERCFLEPRARFYAAEIASALGYLHSLNIVYRDLKPENILLDSQGHIVLTDFGLCKENIEHNSTTSTFCGTPEYLAPEVLHKQPYDRTVDWWCLGAVLYEMLYGLPPFYSRNTAEMYDNILNKPLQLKPNITNSARHLLEGLLQKDRTKRLGAKDDFMEIKSHVFFSLINWDDLINKKITPPFNPNVSGPNDLRHFDPEFTEEPVPNSIGKSPDSVLVTASVKEAAEAFLGFSYAPPTDSFL | failed |
| MLKILKRIVQDVTAASDLKEALGILVQRINTAINAEAVSVYLIDNKNAEYVLIATEGLNKQAEFRVRIALDCGLIGLIGRREEPINIENAPSHPDFYHNPLIGEDHLNAFLGVPIIQHRKLYGVLVVQQLEQRYFDDAEESFLITLAAQLGGIIAHAEATGELAELTQ | failed |
| MNLLLIVVFGAILEIAVWIGIAQFISGWYVFFWFIIAFFIGLSMLRSSTSSIMPQLQQMQMSGQMGNDPAVTKKLAVAMAGFLLMLPGVVSDILALLILIPGVQTLFRNALMKTLAKRQQAMMNKMMGGMMGGDVGGNAGQNPFEDLMRQMQNMQNQQGASPYNDSNVIDGEAREVKPDQKQIEHKDK | failed |
| MAAHLEEQQELDNFKYFWKTTGKWLFALLILAALGYLGYTVYQNRKVSQNQEAAAVLANIVEKAQSKAPQSEINAELTKLQQSYPHSISAAQATLMAAATEFDAQRYDVAEGHLKWVLSNQKDSLIQALAAQRLGVVLLQQKKYDAALAALDTPVEADFAPLLMETKGDVYAAQGKSQEALKNYGQALEKMPQDSVGRELVQMKLDSLK | failed |
| KPSQEGGKGGSEKPKRPVSAMFIFSEEKRRQLQEERPELSESELTRLLARMWNDLSEKKKAKYKAREAALKAQSERK | not failed |
| RVGIIVAAHGNSTASSMVEVATELLGSTPIAAVDMPLTVSPSDILECVAEKMKQVDEGEGVLMLVDMGSLAMLESRLEEKTGISIKTISNVTTSMVLDAVRKVNYLNLNLHAIYQSVTKDFIELWERQPAASGKK | failed |
| MSQIEAVFFDCDGTLVDSEVICSRAYVTMFRQFGITLELTEVFRRFKGVKLYEIIDTISKEHGVALAKAELEPVYRAEVARLFDTELEAIAGANTLLESIKTPMCVVSNGPVSKMQHSLGKLGMLHHFPDLLFSGYDIQRWKPDPALMLHAANAMKVNVEKCILVDDSSAGAQSGIAAGMEVFYFCADPHNKPIDHPNVTTFTDLAQLPGLWKARGWEI | not failed |
| MLSEQALELIDIVARVGSFTAAANRLHKVPSAVSYAVKQIEEELGVVLFERHHRSVTLTPAGGHFVKQARNLLTQIDEMKRGTQRVANGWQPTLSIALDNIVRADRISVLIADFYRHFHDIELIIRIEVFNGVWEALATGHSDVAIGATTAIPVGGVFQYKDMGDIEWAFLVSKNHPLANIDRPLTDEELRPFPSICLEDTSREIPKRMTWLLENQRRLVVPDWIRAINCFREGLGIGYMPVHLASVFIKAGALVEKQLENPKLTSPCCLAWNADKMSPALAWVLDYLGDTDKLHREWLA | failed |
| MHQLWTYDPAAGTVEVGAGTTNEGLVDGPGEEAWFAQPSGLAATADRLWLADSETSALRWVDLDGAVHTAVGTGLFDFGHRDGDAEQALLQHPLGVTALPDGSVAVSDTYNHALRRYDPATGEVTTLATDLREPSDAVLVGDDIVVVESARHRLTRLRLPEEAVRVASVAHRTQRAATEVAPGRLQLDVIFQAPAGQKLDTRYGPSTRLLVSSTPPELLLNGEGADPDLSRTLELNPAIPEGVLHVSAMAASCDDDPANEYPACHVHQQDWGVPVRLTEGGADRLPLVLAGMDALEHHHHHH | failed |
| MIVRGGGDLATGVIQKLWHVGFKILVLETECPLAIRRTVSVCDAIFQKEQRVEDLVAVRITSLKDCAKCWQQNKLPVFVDQTASAIQQLKPLIVIDAILAKKNLGTHRGMAPITIALGPGFSAPQDVDVVIETMRGHRLGRLYFEGTALPNTGIPGEIGGKSAERVVHAPASGQVTHLKNIGDLVLKGEALFLIDQVPVYSPLTGTLRGLISEKVTCYQGLKCADVDPRPVEKVDCLTISDKARALGGAVLEAIFMIGRRKNVLLEHHHHHH | not failed |
| MNWSIPNILTVLRLLAAPGVAVMFLYFHRPWADWFALTLFILAAVTDFFDGYLARLWKQESKFGAMLDPIADKAMVVIALVIITGYSGMNPWLILPVTLILFREVFVSGLREFLGAKASLLKVTKLAKWKTTAQMVAIAILFLGTGLEHLEGIARQGMTWEQYARAVSAGEADPIRSCGMHGCSSYATWLGLALIWIAAALTFITGWDYFRKALPYLKDEK | not failed |
| MNKKKDILVIGFALFSIFFGAGNLIFPPYIGLTSGGEWLISFLGFIISDVGIIFLSIVAVSKAGSFQGVVGRAGKKFGITLEILMMLCLGPILVVPRTAATTFEMSISPLLGNVNPYVFSVIFFLIVFVLTIKPNKVMDIIGKVLTPLLLISLAVLIIKGIINPIGDLENVNSGKLFMTGITQGYQTMDALGTGGIVALVMASFASKGYKDKKENRMLTIKSALIACIGLAIVYGGLTFLGATSSTLYDSSISQTTLLMNITNAILGSTGTIMLAIVIGLACLTTAVGLTSVTAKYFEDVSNKKLKYKYIVIAICVFSALSSNLGVDKIIEIAVPILSLIYPVSILLVVMSIFEKFVPNNVVVKGATYATLLISLLTVIDSLGIKFEFVHKLPLANLGFNWVVPAIVGGLIAGLVFRKREVVSLEESY | failed |
| LDTIPTTYVDAGSVFGKTGDAEKVLNGGWNYLMETFNSYANPGYGAMLRANDAMGSDVVLNSKYGFRTHNEFSAIYGKGGTNTLSWLLAYRVINDCNGVLDNIDAAEGTQADRNRIKGQALALRGFLYLHLASCYSFAIDKDPDAVCAPIYTQSTDETIAAEGKPASSVSEVYAQSINDLEEALELIPETYVRDAKHKIDNEVVLGILSRACLYARQWEKAKTYSDKLLAKDNYLMTESEYKAGFNSVDNKEWIWGHAQTNDQSNASYQFHYLDTTTKGSYYYSFNVDPYFRDLFEDGDYRKEMLFWATDPGADVESAAYVWMRNSKFRFRDIENQLGDIVLMRVAEIYLINAEAKAHLNDPDAINKLNDLKTARGAKTIHTNLSQQDLLETIWLERRKELWGEGFSLIDIIRNQQTVVRNAYPEGPIDYIYTDENGQTHTLKKKTQGHRFFNFPDKSAFCPNSKYYLYRITDSEELANKNLYKDHPKLSIYTK | not failed |
| MDHHAQHHPRSHACVLPNGLRLHLAHDPAASRAAAWLRVAAGSHDEPSAHPGLAHFLEHLSFLGGAAFPGDERLMPWLQVRGGQVNASTLGKTTDYFFEVTAEHLGAGLARLIDMLARPLLDIDAQRREREVLEAEYLARSADEQTLIDAALALGLPAGHPLRRFAAGRRDSLALESDAFQRALREFHAAHYHAGNCQLWLQGPQTLDELERLAQRACADLPGRAPGASPPPPPLLPFACEALALRLPGPPRLVLGFALDALRGADEQTLLAFAELLGDRSPGGLLAALGEQGLGESVALRVVHRDARQALLALTFELFDGSAAAALEAAFFDWLGALRDDAASLLAARRPLLAEPTAPLERLRQRVLGLPAEIRPACLDALRADRCLRLHLDSELDGAEARWSAGFRLSVAPVAAAPPLAAQRHAWRFELPLPPSAAAEGALFLRWRFPGVPARSRFLALRQALRPLCGQARLGGVEMGLEALGEDWSLSLLGPRDRLEAAVRPALARLLAAPPDWRANGERLSSAERRRSATGLPIRQLLDALPGLLGEPLAEVDDWRRTRWDALVMQAAMPDPRWMPGQAAGERLEPLPPRPGRHRRELAVDGESALLLFCPLPTQEVPMEAAWRLLARLHEPAFQRRLRDELQLGYALFCGFREVGARRGLLFAAQSPRACPARLLEHMETFLQRSAEALAQLPARRLAGLRKALADDLRRAPGSFAERARRAWAEHLGGGAGRSRLLAEAALGLSGDDLLAAQARLLEARGGWWVLSSRR | failed |
| MTLTMGFIGFGKSANRYHLPYVNTRKNIKVKTIFARQINEELAAPYEEKGVSFTTNLDELLNDKEIQVVTVCTPAHTHYELAKKVILAGKSVIVEKPFCDTVEHAKELLALGREKGVVVMPYQNRRFDGDFLAVKQVVEQGFLGDIVEVESHIDYFRPGSINHEGPKEEGSFYSLGIHTMDRMISLFGRPDTVTYDIRNNEVDGAVDNYFDVGLHYGNQLKIKLKTNHVVAKDYPRFIVHGTNGSFIKYGEDQQENDLKAGIMPESAGFGEDSPMYYGIAKYRNANGDWIEKQIKTPLGDYGRFYDAAYETIVNGAPKLVKDEEAVTNIEILENGFAAPSPSVYKLEALNLNE | failed |
| MIIKNKMVKRLISTFLMSLLLASMMLVIGAGNVYAQGSVSSTSLQVSADGSDYYIIGSDFYNHFVRPTTVDLAKNKVVYNKQILTVYNGRIDKWKMSFLNQDSSGKSWFKFLSYPEATKGDIKITYTTDGINYSDSKPSLEQLKGYMVELLKPIVYPDDANNQENDIEVSFQLSPDTDYILSNSNLNKQFIPFSGENWLQNYSPYPFFTDRNQLQFVYPDYSKGVMVKYVDEEGNEIHDPQTISGSKGDVYDASTDQYKLVLDGYTLDTSKLPQNSIGNFKEALQTVTYVFSKNPVLAADVTVRYVDKENNPISEDIILQGNIGENYYTDKKILKIIL | failed |
| MGHHHHHHSHMVSDIRRFLSAFHEPQVGLIQAAQQLLCDEQAPQRQRLLADLLHNVSQNIAAETRAEDPPWFEGLESRFQSKSGYLRYSCESRIRSYLREVSSYPSTVGAEAQEEFLRVLGSMCQRLRSMQYNGSYFDRGAKGGSRLCTPEGWFSCQGPFDMDSCLSRHSINPYSNRESRILFSTWNLDHIIEKKRTIIPTLVEAIKEQDGREVDWEYFYGLLFTSENLKLVHIVCHKKTTHKLNCDPSRIYKPQTRLKRKQPVRKRQ | failed |
